Experimental data: patent publication US20230212549A1 (3B PHARMACEUTICALS, published 2023)
Numbered stars: 1 amine (or outer) side, 2 acyl side, 3 side chain; on linkers, the order of the positions; unused ones are H or OH. Bridge positions count the residues as written; N and C are the ends. Square brackets hold non-standard residues; d marks the D form. Primed or numbered codes have the meaning given here. * marks the point of attachment. tMeBn(DOTA-PP) = 1,3,5-trimethylbenzylidene, two thioethers to Cys, third CH2 bound to one N of piperazine whose other N bears DOTA, O=C(O)CN1CCN(CC(=O)O)CCN(CC(=O)N2CCN(Cc3cc(C[*:1])cc(C[*:2])c3)CC2)CCN(CC(=O)O)CC1; Ttds″ = 1,13-diamino-4,7,10-trioxatridecan-succinamic acid spacer, O=C(CCC(=O)[*:2])NCCCOCCOCCOCCCN[*:1]; DOTA = O=C(O)CN1CCN(CC(=O)O)CCN(CC(=O)*)CCN(CC(=O)O)CC1; mXylylene = c1cc(C[*:1])cc(C[*:2])c1; Nphe = O=C(O)CNCc1ccccc1; Hexanoyl = CCCCCC(=O)*; Nleu = CC(C)CNCC(=O)O; Nlys = NCCCCNCC(=O)O; GABA = NCCCC(=O)O; Sar = CNCC(=O)O

B1: Hex-[Cys(tMeBn(DOTA-AET))-Pro-Pro-Thr-Gln-Phe-AET] (peptide)
peptide: CPPTQFX
modifications: not fully specified; N-term Hex; X7 = AET; Cys1/AET7 thioether-cyclised via tMeBn(DOTA-AET)
notes: also called 3BP-3654
B2: Hex-[Cys(3MeBn)-Pro-Pro-Thr-Glu-Phe-Cys]-Asp-Gab-Arg-NH2 (peptide)
peptide: Hexanoyl-CPPTEFCD[GABA]R-NH2
modifications: linker 1-7 via mXylylene
SMILES: CCCCCC(=O)N[C@H]1CSCc2cccc(c2)CSC[C@@H](C(=O)N[C@@H](CC(=O)O)C(=O)NCCCC(=O)N[C@@H](CCCNC(=N)N)C(N)=O)NC(=O)[C@H](Cc2ccccc2)NC(=O)[C@H](CCC(=O)O)NC(=O)[C@H]([C@@H](C)O)NC(=O)[C@@H]2CCCN2C(=O)[C@@H]2CCCN2C1=O
notes: also called 3BP-3300
B3: Hex-[Cys(3MeBn)-Pro-Pro-Thr-Glu-Phe-Cys]-Asp-Ttds-Lys(DOTA)-NH2 (peptide)
peptide: Hexanoyl-CPPTEFCD[Ttds″]K(DOTA)-NH2
modifications: linker 1-7 via mXylylene
SMILES: CCCCCC(=O)N[C@H]1CSCc2cccc(c2)CSC[C@@H](C(=O)N[C@@H](CC(=O)O)C(=O)NCCCOCCOCCOCCCNC(=O)CCC(=O)N[C@@H](CCCCNC(=O)CN2CCN(CC(=O)O)CCN(CC(=O)O)CCN(CC(=O)O)CC2)C(N)=O)NC(=O)[C@H](Cc2ccccc2)NC(=O)[C@H](CCC(=O)O)NC(=O)[C@H]([C@@H](C)O)NC(=O)[C@@H]2CCCN2C(=O)[C@@H]2CCCN2C1=O
notes: also called 3BP-3396
B4: Hex-[Cys(3MeBn)-Pro-Pro-Thr-Gln-Phe-Cys]-Asp-Ttds-Lys(DOTA)-NH2 (peptide)
peptide: Hexanoyl-CPPTQFCD[Ttds″]K(DOTA)-NH2
modifications: linker 1-7 via mXylylene
SMILES: CCCCCC(=O)N[C@H]1CSCc2cccc(c2)CSC[C@@H](C(=O)N[C@@H](CC(=O)O)C(=O)NCCCOCCOCCOCCCNC(=O)CCC(=O)N[C@@H](CCCCNC(=O)CN2CCN(CC(=O)O)CCN(CC(=O)O)CCN(CC(=O)O)CC2)C(N)=O)NC(=O)[C@H](Cc2ccccc2)NC(=O)[C@H](CCC(N)=O)NC(=O)[C@H]([C@@H](C)O)NC(=O)[C@@H]2CCCN2C(=O)[C@@H]2CCCN2C1=O
notes: also called 3BP-3395
B5: Ac-Met-[Cys(3MeBn)-Pro-Pro-Thr-Glu-Phe-Cys]-Asp-His-Phe-Arg-Asp-NH2 (peptide)
peptide: Ac-MCPPTEFCDHFRD-NH2
modifications: linker 2-8 via mXylylene
SMILES: CSCC[C@H](NC(C)=O)C(=O)N[C@H]1CSCc2cccc(c2)CSC[C@@H](C(=O)N[C@@H](CC(=O)O)C(=O)N[C@@H](Cc2c[nH]cn2)C(=O)N[C@@H](Cc2ccccc2)C(=O)N[C@@H](CCCNC(=N)N)C(=O)N[C@@H](CC(=O)O)C(N)=O)NC(=O)[C@H](Cc2ccccc2)NC(=O)[C@H](CCC(=O)O)NC(=O)[C@H]([C@@H](C)O)NC(=O)[C@@H]2CCCN2C(=O)[C@@H]2CCCN2C1=O
notes: also called 3BP-2975
B6: Ac-[Cys(3MeBn)-Pro-Pro-Thr-Glu-Phe-Cys]-Asp-His-Phe-Arg-Asp-NH2 (peptide)
peptide: Ac-CPPTEFCDHFRD-NH2
modifications: linker 1-7 via mXylylene
SMILES: CC(=O)N[C@H]1CSCc2cccc(c2)CSC[C@@H](C(=O)N[C@@H](CC(=O)O)C(=O)N[C@@H](Cc2c[nH]cn2)C(=O)N[C@@H](Cc2ccccc2)C(=O)N[C@@H](CCCNC(=N)N)C(=O)N[C@@H](CC(=O)O)C(N)=O)NC(=O)[C@H](Cc2ccccc2)NC(=O)[C@H](CCC(=O)O)NC(=O)[C@H]([C@@H](C)O)NC(=O)[C@@H]2CCCN2C(=O)[C@@H]2CCCN2C1=O
notes: also called 3BP-3202
B7: Hex-[Cys(3MeBn)-Nlys-Pro-Thr-Gln-Phe-Cys]-NH2 (peptide)
peptide: Hexanoyl-C[Nlys]PTQFC-NH2
modifications: linker 1-7 via mXylylene
SMILES: CCCCCC(=O)N[C@H]1CSCc2cccc(c2)CSC[C@@H](C(N)=O)NC(=O)[C@H](Cc2ccccc2)NC(=O)[C@H](CCC(N)=O)NC(=O)[C@H]([C@@H](C)O)NC(=O)[C@@H]2CCCN2C(=O)CN(CCCCN)C1=O
B8: Hex-[Cys(tMeBn(DOTA-PP))-Phe-Gln-Thr-Pro-Pro-Cys]-Asp-NH2 (peptide)
peptide: Hexanoyl-CFQTPPCD-NH2
modifications: linker 1-7 via tMeBn(DOTA-PP)
SMILES: CCCCCC(=O)N[C@H]1CSCc2cc(cc(CN3CCN(C(=O)CN4CCN(CC(=O)O)CCN(CC(=O)O)CCN(CC(=O)O)CC4)CC3)c2)CSC[C@@H](C(=O)N[C@@H](CC(=O)O)C(N)=O)NC(=O)[C@@H]2CCCN2C(=O)[C@@H]2CCCN2C(=O)[C@H]([C@@H](C)O)NC(=O)[C@H](CCC(N)=O)NC(=O)[C@H](Cc2ccccc2)NC1=O
B9: Hex-[Cys(3MeBn)-Nleu-Pro-Thr-Gln-Phe-Cys]-NH2 (peptide)
peptide: Hexanoyl-C[Nleu]PTQFC-NH2
modifications: linker 1-7 via mXylylene
SMILES: CCCCCC(=O)N[C@H]1CSCc2cccc(c2)CSC[C@@H](C(N)=O)NC(=O)[C@H](Cc2ccccc2)NC(=O)[C@H](CCC(N)=O)NC(=O)[C@H]([C@@H](C)O)NC(=O)[C@@H]2CCCN2C(=O)CN(CC(C)C)C1=O
B10: Hex-[Cys(3MeBn)-Nphe-Pro-Thr-Gln-Phe-Cys]-NH2 (peptide)
peptide: Hexanoyl-C[Nphe]PTQFC-NH2
modifications: linker 1-7 via mXylylene
SMILES: CCCCCC(=O)N[C@H]1CSCc2cccc(c2)CSC[C@@H](C(N)=O)NC(=O)[C@H](Cc2ccccc2)NC(=O)[C@H](CCC(N)=O)NC(=O)[C@H]([C@@H](C)O)NC(=O)[C@@H]2CCCN2C(=O)CN(Cc2ccccc2)C1=O
B11: Hex-[Cys(tMeBn(DOTA-PP))-Pro-Thr-Pro-Phe-Gln-Cys]-Asp-NH2 (peptide)
peptide: Hexanoyl-CPTPFQCD-NH2
modifications: linker 1-7 via tMeBn(DOTA-PP)
SMILES: CCCCCC(=O)N[C@H]1CSCc2cc(cc(CN3CCN(C(=O)CN4CCN(CC(=O)O)CCN(CC(=O)O)CCN(CC(=O)O)CC4)CC3)c2)CSC[C@@H](C(=O)N[C@@H](CC(=O)O)C(N)=O)NC(=O)[C@H](CCC(N)=O)NC(=O)[C@H](Cc2ccccc2)NC(=O)[C@@H]2CCCN2C(=O)[C@H]([C@@H](C)O)NC(=O)[C@@H]2CCCN2C1=O

These binders were tested against T1, Recombinant human FAP (R&D systems, #3715-SE) (human, UniProt Q12884 26-760) (assay: SPR (Biacore T200), FAP captured on anti-FAP antibody, single cycle kinetics).
T1 construct: bought; in SPR captured on immobilized anti-FAP antibody MAB3715; also called rhFAP; human recombinant FAP
T1 sequence (Q12884 26-760 limits assumed): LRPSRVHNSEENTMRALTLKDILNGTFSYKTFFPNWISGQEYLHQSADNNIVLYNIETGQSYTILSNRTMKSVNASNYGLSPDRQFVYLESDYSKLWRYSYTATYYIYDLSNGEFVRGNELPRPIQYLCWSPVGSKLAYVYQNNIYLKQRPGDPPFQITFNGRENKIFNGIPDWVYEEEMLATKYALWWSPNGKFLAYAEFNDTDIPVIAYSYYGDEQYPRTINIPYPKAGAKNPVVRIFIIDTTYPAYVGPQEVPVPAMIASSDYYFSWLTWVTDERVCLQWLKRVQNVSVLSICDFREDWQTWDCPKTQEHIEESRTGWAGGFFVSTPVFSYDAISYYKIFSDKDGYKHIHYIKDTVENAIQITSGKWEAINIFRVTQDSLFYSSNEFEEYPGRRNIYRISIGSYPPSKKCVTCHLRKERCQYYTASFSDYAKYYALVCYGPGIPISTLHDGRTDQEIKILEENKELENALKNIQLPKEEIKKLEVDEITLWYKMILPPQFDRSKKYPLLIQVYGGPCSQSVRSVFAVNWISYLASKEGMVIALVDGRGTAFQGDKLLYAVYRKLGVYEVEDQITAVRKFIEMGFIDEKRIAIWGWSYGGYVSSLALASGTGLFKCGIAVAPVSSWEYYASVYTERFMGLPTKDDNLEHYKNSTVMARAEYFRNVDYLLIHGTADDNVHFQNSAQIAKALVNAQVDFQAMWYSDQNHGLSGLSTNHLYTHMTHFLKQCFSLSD

Binder	pKD Category [pKD]
Hexanoyl-CPPTQFCD-OH (linker 1-7 via tMeBn(DOTA-AET), also called 3BP-3665) [Hex-[Cys(tMeBn(DOTA-AET))-Pro-Pro-Thr-Gln-Phe-Cys]-Asp-OH]	> 8
B1	> 8
Hexanoyl-C[Sar]PTQFC-OH (linker 1-7 via tMeBn(DOTA-AET), also called 3BP-3678) [Hex-[Cys(tMeBn(DOTA-AET))-Nmg-Pro-Thr-Gln-Phe-Cys]-OH]	> 8
B2	> 8
B3	> 8
B4	> 8
B5	> 8
B6	> 8

The binders below were run against T1, Recombinant human FAP (R&D systems, …) (assay: cell-based or functional assay).

Binder	pIC50 Category (Activity) [pIC50]
B7	≤ 6
B8	≤ 6
B9	≤ 6
B10	≤ 6
B11	≤ 6
